From US20230265201A1 (published 2023) come the findings set out here.

The target in test [1] is cynomolgus monkey Flag-TNC-CD70 (cynomolgus monkey). Briefly: CD27-CD70 inhibition ELISA, cynomolgus Flag-TNC-CD70.
In test [2] the target is T1, rhesus recombinant CD70 (FLAG-TNC-rhesus CD70) (rhesus macaque (Macaca mulatta), UniProt F7GPA5 174-316).
T1 construct: also called rhesus Flag-TNC-CD70; Rhesus monkey; not shown: Flag tag and TNC trimerisation domain
T1 sequence: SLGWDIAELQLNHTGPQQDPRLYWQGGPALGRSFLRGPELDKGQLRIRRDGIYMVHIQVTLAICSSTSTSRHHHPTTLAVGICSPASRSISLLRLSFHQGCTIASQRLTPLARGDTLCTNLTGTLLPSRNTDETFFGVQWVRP
Briefly: CD27-CD70 inhibition ELISA, rhesus Flag-TNC-CD70. As for the experimental part: In this assay, a microtiter plate (Nunc Maxisorb) was first coated with 100 µl anti-FLAG M2 monoclonal antibody (Sigma Aldrich, F3165) at 1250-fold dilution in PBS (to achieve a final concentration of approximately 3.5 µg/ml) overnight at 4° C. The plate was washed once with PBS-Tween and incubated at RT for 2 hours with 300 µl PBS-1% casein. The plate was washed a further three times with PBS-Tween. 100 µl of 5 ng/ml (80 pM) Flag-TNC-CD70 (The Journal of Immunology, 2009, 183: 1851-1861) diluted in PBS-0.1% casein was added to the plate and incubated at RT for 1 hour while shaking. The plate was washed five times with PBS-Tween. The CD70 mAb to be tested was added to the plate; various concentrations were achieved by diluting the stock antibody solution in PBS-0.1% casein. Immediately thereafter, 50 µl of 1 µg/ml (final concentration 6.5 nM) recombinant human CD27 Fc chimera (R&D systems 382-CD, MW = 46.5 kDa) was added, and incubated at RT for 1 hour while shaking. The plate was washed five times with PBS Tween. 100 µl of biotinylated anti-CD27 (eBioscience 13-0271), diluted 500-fold in PBS-0.1% casein, was added, and the plate incubated at RT for a further hour, while shaking. The plate was washed five times with PBS Tween. […] 100 µl TMB was added to the plate and the OD at 620 nm was measured. […]
Background: An ELISA detects its analyte on a solid surface through an enzyme-linked reagent.

Test [3] concerns the target T2, human CD70 on the surface of cells (human, UniProt P32970 1-193).
T2 sequence (looked up): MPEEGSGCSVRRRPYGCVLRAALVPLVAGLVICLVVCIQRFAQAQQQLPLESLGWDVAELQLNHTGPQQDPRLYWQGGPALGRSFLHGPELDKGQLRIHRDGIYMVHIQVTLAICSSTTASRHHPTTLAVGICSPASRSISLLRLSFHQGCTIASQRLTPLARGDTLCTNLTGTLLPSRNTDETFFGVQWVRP
Briefly: cell-based or functional assay.

Test [4] has as its target T1, rhesus recombinant CD70 …. Briefly: inhibition ELISA: CD27 binding to FLAG-TNC-rhesus CD70. From the text: In this assay, Flag-TNC-CD70 is captured by an anti-Flag mAb and binding of CD27-Fc is detected via a biotinylated anti-CD27 mAb and strep-HRP in the absence or presence of CD70 Fabs (FIGS. 2 and 3) or CD70 mAbs (FIG. 4). In FIG. 2B it can be seen that 27B3, which has an identical VH as 9D1, but contains a somewhat different light chain, seems to block binding of CD27 to CD70 more efficiently, which was in line with the better off rate of this Fab as measured on Biacore (data not shown). Table 3 indicates the blocking potency (expressed as IC50) for the various llama-human chimeric mAbs tested in the CD70 inhibition ELISA. […] FIG. 3 is a composite of an experiment testing llama CD70 Fabs for blocking activity (in the inhibition ELISA, see white bars) and for CD70 binding (binding ELISA, black bars). For the binding ELISA, Flag-TNC-CD70 is captured by an anti-Flag mAb and binding of the Fabs is detected using an anti-myc-HRP mAb, which recognizes the MYC tag fused to the C-terminus of the Fd fragment. For comparison purposes, known monoclonal antibodies to CD70 (SGN70 described in US 2010/0129362 A1, clone 1F6; and MDX69A7 described in WO2008/074004FIGS. 5A and 5B) were tested in parallel. […] Of interest is clone 59D10, which as Fab has no blocking activity, but when converted into a chimeric IgG was antagonistic (see Table 3). […]

Test [5] concerns the target T1, rhesus recombinant CD70 …. Briefly: Biacore off-rate, Fab over immobilised rhesus CD70. (In general: Surface plasmon resonance follows binding to a sensor surface in real time, without labels.)
In test [6] the target is T3, recombinant human CD70 (Flag-TNC-CD70) (human, UniProt P32970 39-193).
T3 construct: extracellular domain; also called recombinant CD70; human Flag-TNC-CD70; not shown: Flag tag and TNC trimerisation domain
T3 sequence (looked up): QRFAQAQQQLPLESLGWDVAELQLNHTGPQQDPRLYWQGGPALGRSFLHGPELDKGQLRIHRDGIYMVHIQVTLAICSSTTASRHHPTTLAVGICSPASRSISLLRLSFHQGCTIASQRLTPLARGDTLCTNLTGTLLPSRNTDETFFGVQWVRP
Briefly: CD27-CD70 inhibition ELISA, human Flag-TNC-CD70.

Test [7] has as its target T4, rhesus recombinant CD70 (FLAG-TNC-rhesus CD70) (rhesus macaque (Macaca mulatta)) (UniProt F7GPA5).
T4 sequence: T1 sequence
Briefly: CD27-CD70 inhibition ELISA, rhesus Flag-TNC-CD70.

Test [8] has as its target T3, recombinant human CD70 (Flag-TNC-CD70). Briefly: inhibition ELISA: CD27-Fc binding to anti-Flag-captured Flag-TNC-CD70. How it is done: From selected phage transfected into TG1, individual colonies were picked randomly for growth in 96 well plates. After IPTG induction according to standard protocols periplasmic fractions (peris) containing Fabs were prepared. […] In this assay, Flag-TNC-CD70 is captured by an anti-Flag mAb and binding of CD27-Fc is detected via a biotinylated anti-CD27 mAb and strep-HRP in the absence or presence of CD70 Fabs (FIGS. 2 and 3) or CD70 mAbs (FIG. 4). In FIG. 2B it can be seen that 27B3, which has an identical VH as 9D1, but contains a somewhat different light chain, seems to block binding of CD27 to CD70 more efficiently, which was in line with the better off rate of this Fab as measured on Biacore (data not shown). Table 3 indicates the blocking potency (expressed as IC50) for the various llama-human chimeric mAbs tested in the CD70 inhibition ELISA. […] FIG. 3 is a composite of an experiment testing llama CD70 Fabs for blocking activity (in the inhibition ELISA, see white bars) and for CD70 binding (binding ELISA, black bars). For the binding ELISA, Flag-TNC-CD70 is captured by an anti-Flag mAb and binding of the Fabs is detected using an anti-myc-HRP mAb, which recognizes the MYC tag fused to the C-terminus of the Fd fragment. […]

Test [9] has the same target. Briefly: blocking ELISA of Example 19: CD27 Fc chimera on anti-Flag-captured Flag-TNC-CD70.

In general, IC50 refers to the point on the concentration scale where inhibition reaches its midpoint.

Changes are numbered by the printed parent chain.

B1: ARGX-110 (non-fucosylated human IgG1 of germlined 27B3 clone 41D12) (antibody, V domains shown)
VH: EVQLVESGGGLVQPGGSLRLSCAASGFTFSVYYMNWVRQAPGKGLEWVSDINNEGGTTYYADSVKGRFTISRDNSKNSLYLQMNSLRAEDTAVYYCARDAGYSNHVPIFDSWGQGTLVTVSS
VL: QAVVTQEPSLTVSPGGTVTLTCGLKSGSVTSDNFPTWYQQTPGQAPRLLIYNTNTRHSGVPDRFSGSILGNKAALTITGAQADDEAEYFCALFISNPSVEFGGGTQLTVLG
notes: also called ARGX-100; 41D12 (ARGX-110)
B1: the figures for the 50% inhibitory concentration (IC50) in test [1] and in test [2] were 0.048 µg/mL and 0.075 µg/mL, respectively.

B2: 27B3 chimeric llama-human mAb (antibody, V domains shown)
VH: B1 VH with S75A, S78T, Y80T, R87K, A88P, V93L, A97V, L117Q, T119I, S121A
VL: B1 VL with D32T, D62S, L69S, G70E, A82P, D83E, G111S
notes: also called SIMPLE antibody 27B3; mAb 27B3
On to B2, for which the “Raji co-culture assay IC50 relative to 27B3” value in test [3] was 1 fold relative to 27B3. In test [4], the IC50 is 0.15 µg/mL.

B3: 59D10 Fab (Fab, V domains shown)
VH: EVQLVESGGGLVQPGGSLRLSCAASELSFSISEMTWVRQAPGKGLEWVSGISGVTGGSSTSYADSVKGRFTISRDNDKNTLYLQMNSLIPEDTAVYYCATTSGTYYFIPEYEYWGQGTQVTVSS
VL: QSVLTQPPSVSGSPGKTVTISCAGTSSDVGYGYYVSWYQQFPGMAPKLLIYDVNKRASGIADRFSGSKAGNTASLTISGLQSEDEADYYCASYRSSANAVFGGGTHLTVLG
notes: Llama-derived Fab from phage display; MYC tag at C-terminus of Fd
As for B3, in test [5], the binding result is listed as “no binding”.

B4: 57B6 chimeric llama-human mAb (antibody, V domains shown)
VH: QLQLVESGGGLVQPGGSLRLSCAASGFSFSHYAMSWVRQAPGKGLEWVSGDNTYDGGTRYQDSVKGRFTISRDNGKNTLYLQMNSLKPEDTAVYYCAKDTGRGIMGEYGMDYWGKGTLVTVSS
VL: QTVVTQEPSLSVSPGGTVTLTCGLKSGSVTSSNYPAWYQQTPGQAPRLLIYNTNSRHSGVPSRFSGSISGNKAALTITGAQPEDEADYYCALYMGSGSANAMFGGGTHLTVLG
As to B4, the IC50 in test [4] turned out to be 0.135 µg/mL.

B5: SGN70 mAb (antibody, INN chains, looked up, V domains shown)
VH: QVQLVQSGAEVKKPGASVKVSCKASGYTFTNYGMNWVRQAPGQGLKWMGWINTYTGEPTYADAFKGRVTMTRDTSISTAYMELSRLRSDDTAVYYCARDYGDYGMDYWGQGTTVTVSS
VL: DIVMTQSPDSLAVSLGERATINCRASKSVSTSGYSFMHWYQQKPGQPPKLLIYLASNLESGVPDRFSGSGSGTDFTLTISSLQAEDVAVYYCQHSREVPWTFGQGTKVEIK
Take B5: the IC50 of IL-8 secretion, Raji / HT1080-CD27 co-culture in test [3] was 0.055 µg/mL. The 50% inhibitory concentration (IC50) came out at 0.054 µg/mL in test [6]; 0.178 µg/mL in test [7]; 0.112 µg/mL in test [1]; 0.33 µg/mL in test [8]; 4.97 µg/mL in test [9].
